Consider one molecule from PMC4480132, “MAF1 represses CDKN1A through a Pol III-dependent mechanism”.

The target of this series is T1, MAF1 (His-tagged, Fitzgerald 80R-1955) (UniProt Q9H063 1-256).
T1 sequence: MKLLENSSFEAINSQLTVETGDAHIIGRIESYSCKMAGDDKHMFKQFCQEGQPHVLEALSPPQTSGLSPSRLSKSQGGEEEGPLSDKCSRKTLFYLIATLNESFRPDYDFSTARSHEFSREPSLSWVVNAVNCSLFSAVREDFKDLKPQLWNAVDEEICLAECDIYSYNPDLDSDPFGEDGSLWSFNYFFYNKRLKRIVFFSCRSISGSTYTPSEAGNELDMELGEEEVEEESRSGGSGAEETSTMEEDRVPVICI
Kind of series: colorimetric DNA-protein binding assay (ab117139); 40 ng biotin probe, 500 ng MAF1; IP-qPCR: 20 mM HEPES pH 7.6, 150 mM NaCl, 0.25 mM EDTA, 10% glycerol, 0.2% NP40, 1 mM DTT, 200 ng BSA, 50 ul, 20 ng DNA, 400 ng MAF1, 4 C/ice; colorimetric: Abcam ab117139 kit conditions. The settings on record: protein: commercial; tags: His6; label: 5' biotin (probe). In general terms: In qPCR the cycle at which signal appears reflects the starting amount.

B1: p21 A-box probe (CDKN1A MIR3) (dsDNA)
DNA 1: AATCAACAACTTTGTATACTTAAGTTCAGTGGACCTCAATTTCCTCATCTGTGAAATAAA
DNA 2: TTTATTTCACAGATGAGGAAATTGAGGTCCACTGAACTTAAGTATACAAAGTTGTTGATT
As to B1, the binding result is listed as “binds”.
